Assay: yeast display, Sf9 membrane polyspecificity reagent, FACS + sequencing; frameworks hold sequencing errors
Outline: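 In a synthetic yeast display library (Saccharomyces cerevisiae BJ5465), nanobody expression was induced with galactose for 36–48 hours. FACS gates were set low and high (top ~1%) using anti-HA fluorescence for expression and streptavidin fluorescence for binding of the Sf9 membrane reagent. Each polyreactivity label is drawn from the gate of origin.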

## QVQLVESGGGLVQAGGSLRLSCAASGITFGAYAMGWDRQAPGKERELVASISSSGSTYADSVKGRFTISRDNAKTTVYLQMNSLKPEDTAVYYCNAVGFQANDYNYWRQGTQVTVSS
  polyreactivity (PSR sort gate): low polyreactivity

## QGQLVESGGGLVQAGGSLRLSCAASGSTSGKNAMGWYRQAPGQERELVAVITYSGSRTYYADSVKGRFTISRDNAKNTVYLQMNSLKPEDTAVYYCATRGLKTYQAYDYWGQGTQVTVSS
  polyreactivity (PSR sort gate): high polyreactivity

## QVQLVESGGGLVQAGGSLRLSCAASGSTYQGYAMGWYRQAPGKERELVAAISGRSGSTYYADSVKGRFTISRDNAKNTVYLEMNSLKQEDTAVYYFNAVTGVNPSLDYWGQGTQVTVSS
  polyreactivity (PSR sort gate): high polyreactivity

## QVQLVESGGGLVQAGGSLRLSCAASGRIFYPYSMGWYRQAPGKERELVATITYIGGSTYADSVKGRFTISRDNAKNTVYLQMNSLKPEDTAVYYCAASETYFRFPFGIYYYWGQGTQVTVSS
  polyreactivity (PSR sort gate): low polyreactivity

## QVQLVESGGGLVQAGGSLRLSCAASGSIFQGYAMGWYRKAPGKERELVAAITSSGGSTRYADSVKGRFTISRDNAKNTVYLQMNSLKPEDTAVYYCAARYKWPYDYWGQGTQVTVSS
  polyreactivity (PSR sort gate): high polyreactivity

## QVQIVETGGGLVQAGGSLRLSCDASGSIFPDYAKGWYRQAPRKERELLASISWDGGSTYYADSVKGRFTISRDNAKNTVYLQMNSLKPEDTAVYYCATEWLVGGGVTVDYWGQGTQVSVSS
  polyreactivity (PSR sort gate): low polyreactivity

## QVQLVESGGGLVQAGGSLRLSCAASGYIFDFYDMGWYRQAPGKERELVAAITSGGSTNYADSVKGRFTISRDNAKNTVYLQMNSLKPEDTAVYYCAASFVGHIYWGARVPYYYNHDYWGQGTQVTVSS
  polyreactivity (PSR sort gate): high polyreactivity

## QVQLVESGGGLVQAGGSLRLSCAASGRIFAYNAMGWYRQAPGKERELVAAIDSGGDTNYADSVKGRFTISRDNAKNTVYLQMNSLKPEDTAVYYCAARLYVLRWYPYDYWGHGTQVTVSS
  polyreactivity (PSR sort gate): low polyreactivity

## QVQLVESGGGLVQAGGSLRLSCAASGRNFPSYAMGWYRQAPGKERELVAAISFSGASTYYADSVKGRFTFSRDNAKNTVYLQMNSLKPEDTAVYYCNASGVGADVQWSWEEGDYWGQGTQVTVSS
  polyreactivity (PSR sort gate): low polyreactivity

## QVQLVESGGGLVQAVGSLRLSCAASGSIFGGYAMGWYRQAPGKERELVAAITYSGGSTYYADSVKGRFTISRDNAKNTVYLQMNSLKPEDTAVYYCAAESYDPYYEYDYWGQGTQVTVSS
  polyreactivity (PSR sort gate): high polyreactivity

## QVQLVESGGGLVQAGGSLRLSCAASGYTFGYYAMGWYRQAPGKERELVAAISYSGGTTYYADSVKGRFTISRDNAKNTVYLQMNSLKPEDTAVYYCNKRYWVRTGKVSSYDYWGQGTQVTVSS
  polyreactivity (PSR sort gate): high polyreactivity

## QVQLVESGGGLVQAGGSLRLSCAASGRTFVYYAMGWYRQAPGKERELVAAISSRGGSTYYADSVKGRFTISRDYAKNTVYLQMNSLKPEDTAVYYCAARARRRYYYWGQGTQVTVSA
  polyreactivity (PSR sort gate): high polyreactivity

## QVQLVESGGGLVQAGGSLRLSCAASGFIFSGYAMGWSRQAPGKERELVAAITWSGSNTFYADSVKGRFTISRDNAKNTVYLQMNSLKPEDTAVYYCNAVSKYKRSDYYYWGQGTQVTVSS
  polyreactivity (PSR sort gate): high polyreactivity

## QVQLVESGGRLVQAGGSLRLSCAASGSTFQFNVMGWYRQAPGKERELVAAITSGASTYYADSVKGRFTISRDNAKNTVYLQMNSLEPEDTAVYYCAVDYSFRYDYVQRYYYWGQGTQVTVSS
  polyreactivity (PSR sort gate): high polyreactivity

## QVQLVESGGGLVQAGGSLRLSCAASGRIFAYNAMGWYRQAPGKERELVAAITWSGSTYYADSVKGRFTISRDNAKNTVYLQMNSLKPEDTAVYYCNAQYRGYWNRGYDYWGQGTQVTVSS
  polyreactivity (PSR sort gate): high polyreactivity

## QVQLVESGGGLVQAGGSLRLSCAASGSTFSDYVMGWYRQAPGKERELVAAISWSGDRTYYADSVKGRFTISRDNAKNTVYLQMNSLKPEETAVYYCAAEYAPSEPSYYYGYDYWGQGTQVTVSS
  polyreactivity (PSR sort gate): high polyreactivity

## QVQLVESGGGLVLAGGSLRLSCAASGFIFATYAMGWYRQAPGKERVLVAAISRRGVRTNYADSVKGRFTISRDNAKNTVYLQMNSLKPEDTAVYYSNAQSHYGKIPMYYWGQGTQVTVSS
  polyreactivity (PSR sort gate): high polyreactivity

## QVQLVESGGGLVQAGGSLRLSCAASGFTFTRYAMGWYRQAPGKERELVAAISRIGGSTYYADSVKGRFTISRDNAKNTVYLQMNSLKPEDTAVYYCAASKVPSYDYWGQGTQVTVSS
  polyreactivity (PSR sort gate): high polyreactivity

## QVQLVESGGGLVQAGGSLRLSCAASGRIFYRNAMGWYRQAPGKERELVAAIRGSGGRTYYADSVKGRFTISRDNAKNTVYLQMNSLKPEDTAVYYCAAYGYYVEHPRGLSGPYDDDYWGQGTQVTVSS
  polyreactivity (PSR sort gate): low polyreactivity

## QVQLVESGGGLVQAGGSLRLSCAASGSTFVPYAMGWYRQAPGKERELVAAITDSGGSTSYADSVKGRFTISRDKAKNSVYLQMNSLKPEDTAVYYCAAQTRAIVQKYPGDDYWGQGTQVTVSS
  polyreactivity (PSR sort gate): low polyreactivity

## QVQLQDTGGGLVQAGGSPRLSCAASDNIFPDSVMCWYRQAPGKERELVATIGFGATTNYADSVKGRFTISRDNAKITVYLQMNSLKPEDSAVYYCAADPLNYEYFCYWGQGTQVTVRS
  polyreactivity (PSR sort gate): low polyreactivity

## QVQLVESGGGLVQAGGSLRLTCAASGSIFYAYAMGWYRQAPGKERELVAAISGRGGSTYYADSVTGRFTISRDNAKKTVYFQMNSLKPEDTAVYYCAAERRTFYGLGVHYWGQVTQVTVSS
  polyreactivity (PSR sort gate): high polyreactivity

## QVQLVESGGGLVQAGGSLRLSCAASGSTFKVNAMGWYRQAPGKERELVAAISRGGSTYADSVKGRFTISRDNAKNTVYLQMNSLKPEDTAVYYCAAKSRYFQPDEYYYWGQVTQVTVSS
  polyreactivity (PSR sort gate): high polyreactivity

## QVQLVESGGGLVQAGGSLRLSCAASGFTLEYYAMGWYRQAPGKERELVAAITNGASTNYADSVKGRFTISRDNAKNTVYLQMNSLKPEDTAVYYDYWGQGTQVTVSS
  polyreactivity (PSR sort gate): low polyreactivity

## QVQLVESGGGLVHAGGSLRLSCAASGSIFGVNARGWYRPAPGKERELVAAISSTGSRTYYADSVQGRFTISRDNAKNTVYLQRNSLKPEETAVYYCAAYLTRYGAYYWGQGTQVTVSS
  polyreactivity (PSR sort gate): high polyreactivity

## QVQLVESGGGLVQAGGSLRLSCAASGRTFGQNAMGWYRQAPGKERELVASIRSGGITDYADSVKGRFTISRDNAKNTVYLQMNSLKPDDTAVYYCNAEGVWWSTRYDSWGQGTQVTVSS
  polyreactivity (PSR sort gate): low polyreactivity

## QVQLVESGGGLVQAGGSLRLSCAASGRTFGRNAMGWYRQAPGKERELVADISLRGGRTYYADSVKGRFTISRDNAKNTVYLQMNSLKPEDTAVYYCAAVQPVGLYPRTKYYYWGQGTQVTVSS
  polyreactivity (PSR sort gate): high polyreactivity

## QVQLVESGGGLVQAGGSLRLSCAASGGTFSAYAMGWYRQAPGKERELVAAISYRGGRTYYADSVKGRFTISRDNAKNTVYLQMNSLKPEDTAVYYCNARRGSATHSVTARRGYWGQGTQVTVSS
  polyreactivity (PSR sort gate): high polyreactivity

## QVQLVESGGGLVQAGGSHRLSCAASGNAMGCYRQAPGKERELVAAITYGGTTTYYADSVKGRFTISRDNAKNTVYLQMNSLKPEDTAVYYCAADYVFVATPLRYDYWGQGTQVTVSS
  polyreactivity (PSR sort gate): low polyreactivity

## QVQLVESGGGLVQAGGSLRLSCAASGSTFRPYVMGWYRQAPGKERELVAAISWRGGTTYYADSVKGRFTISRDNAKNTVYLQMNSLKPEDTAVYYCAARGDQGVPVARRYDYWGQGTQVTVSS
  polyreactivity (PSR sort gate): high polyreactivity

## QLQLVESGGGLVQAGGSLRLSCAASGYTFKTNDMGWYRQAPGKEREFVAAIDSGGNTYYADSVKGRFTISRDNAKNTVYLQMNSLKPEDTAVYYCAAYRDYQNDYWGQGTQVTVSS
  polyreactivity (PSR sort gate): low polyreactivity

## QLHLVESGGGLVQAGGSLRLSCAASGIIFWYNDMGWYRQAPGKESELVAAISTGGSTNYADSVKGRFTISRDNAKNTVYLQMNSLKPEDTAVYYCAGDWHRAYGGYDYWGEGTQVTVSS
  polyreactivity (PSR sort gate): low polyreactivity

## QVQLVESGGGLVQAGGSLRLSCAASGFTFVFYAMGWYRQAPGKERELVAAISSRGGSTYYADSVKGRFTISRDNAKNTVDLQMNSLKPEDTAVYYCNVVSTYWTTYEEYYWGQGTQVTVSS
  polyreactivity (PSR sort gate): high polyreactivity

## QVQLVESGVGLVQAGGSLRLSCAASGFIFKRYAMGWYRQAPGKERELVATISNSGGRTYYADSVKWRFTISRDNAKNTVYLQMNSLKPEDTAVYYCAALPFWWGGYWGQGTQVTVSS
  polyreactivity (PSR sort gate): high polyreactivity

## QVQLVESGGGLVQAGGSLRLSCAASGRIFGRNAMGWYRKAPGKERELVAAISWRGGNTYYADSVKGRFTISRDNAKNTVYLQMNSLKPEDTAVYYCNTVQYRNEMGYWGQGTQVTVSS
  polyreactivity (PSR sort gate): high polyreactivity

## QVQLVESGGGLDQAGGSLRLSSAASGFTFERYPMGWDRQAPGKEREMVAAIDWRGVNTYYADSVKGRFTISRHTAKTTVYLQMNSLKPEDTAVYYCNARAYGRYYWGQGTQVTVSS
  polyreactivity (PSR sort gate): high polyreactivity

## QVQLVESGGGLVQAGGSLRLSCAASGSITPRNAMGWYRQAPGKERELVARISGSGGTTYYADSVKGRFTISRDNAKNTVYLQMKSLKPEDTAVYYCAASVRWNKYTLYDYWGQGTQVTVSS
  polyreactivity (PSR sort gate): low polyreactivity

## QVQLVESGGGLVQAGGSLRLSCAASGRIFDRNAMGWYRQAPGKERELVARISRTGGSTYYADSVKGRFTISRDNAKNTVYLQMNSLKPEDTAVYYCAASRGGGYDYWGQGTQVTVSS
  polyreactivity (PSR sort gate): high polyreactivity

## QVQLVESGGGLVQAGGSLRLSCAASGSIIHRNAMGWYRQAPGKERELVATITSNGGSTYYADSVKGRFTISRDNAKNTVYLQMNSLKPEETAVYYCARKYRSPISALLTGDYWGQGTQVTVSS
  polyreactivity (PSR sort gate): low polyreactivity

## QVQLVESGGGLVQAGGSLRLSCAASGSTYYANAMGWYRQAPGKEREFVATISSSDGSTYYADSVKGRFTISRDNAMNTVYLQMYSLKPEDTAVYYCNAADYPEAHSTYYYWGQGTLVTVSS
  polyreactivity (PSR sort gate): low polyreactivity

## QVQLVESGGGLVQAGGSLRLSCAASGSTFSLYAMGWYRQAPGKERELVAAISQSGSRTYYADSVKGRFTISRDNAKNTVYLQMNSLKPEDTAVYYCAAYSPQTYLRWTYGYWGQGTQVTVSS
  polyreactivity (PSR sort gate): high polyreactivity

## QVQLVESGVGIVQAGGSLRISCAASGTNFLFYAMGWYRQAPGKERELVATISRGGSTYYADSVKGRFTISRDNAKNTVYFQMKSLKPEDTAVYYCAARATRVTIAPRYGYWGQGTQVTVSS
  polyreactivity (PSR sort gate): low polyreactivity

## QVQLVESGGGLVQAGGSLRLSCAASGSIFHRNAMGWYRQAPGKERELVATISSSTGSTNYADSVKGRFTISRDNAKNTVYLQMNSLKPEDTAVYYCAAAPHRHSWYYTRHPYFGMDYWGQGTQVTVSS
  polyreactivity (PSR sort gate): low polyreactivity
